B1: RAN GTPase-activating protein 1 (Arabidopsis thaliana (Mouse-ear cress)), Q9LE82 (parent)
chain: MDHSAKTTQNRVLSVKMWPPSKSTRLMLVERMTKNITTPSIFSRKYGLLSVEEAEQDAKRIEDLAFATANKHFQNEPDGDGTSAVHVYAKESSKLMLDVIKRGPQEESEVEVSKDGDVFFDISGGSRAFIEEEEARDLLRPLADPRNSYTKIRFSNRSFGSEAAKFAASVLSSIKDQLTEVDLSDFVAGRPEAEALEVMNMFSSALEGSKLRYLNLSDNALGEKGIRAFASLINSQHDLEELYLMNDGISEDAARAVRELLPSTDKIRVLQFHNNMTGDEGATAIAEIVRECPSLEDFRCSSTRIGSEGGVALAEALEHCSHLKKLDLRDNMFGVEGGIALAKTLSVLTHLTEIYMSYLNLEDEGTEALSEALLKSAPSLEVLELAGNDITVKSTGNLAACIASKQSLAKLNLSENELKDEGTILIAKAVEGHDQLVEVDLSTNMIRRAGARALAQTVVKKNTFKLLNINGNFISEEGIDEVNDMFKDCLDKLVPLDDNDPEGEDFEDEDEEEEGEDGNELESKLGSLKIKQGEE

Variants of: B1
Details: with kn12c_arath KIN12C

| effect of a mutation on the interaction | Variant |
| --- | --- |
| decreasing interaction | MDHSAKTTQNRVLSVKMAAPSKSTRLMLVERMTKNITTPSIFSRKYGLLSVEEAEQDAKRIEDLAFATANKHFQNEPDGDGTSAVHVYAKESSKLMLDVIKRGPQEESEVEVSKDGDVFFDISGGSRAFIEEEEARDLLRPLADPRNSYTKIRFSNRSFGSEAAKFAASVLSSIKDQLTEVDLSDFVAGRPEAEALEVMNMFSSALEGSKLRYLNLSDNALGEKGIRAFASLINSQHDLEELYLMNDGISEDAARAVRELLPSTDKIRVLQFHNNMTGDEGATAIAEIVRECPSLEDFRCSSTRIGSEGGVALAEALEHCSHLKKLDLRDNMFGVEGGIALAKTLSVLTHLTEIYMSYLNLEDEGTEALSEALLKSAPSLEVLELAGNDITVKSTGNLAACIASKQSLAKLNLSENELKDEGTILIAKAVEGHDQLVEVDLSTNMIRRAGARALAQTVVKKNTFKLLNINGNFISEEGIDEVNDMFKDCLDKLVPLDDNDPEGEDFEDEDEEEEGEDGNELESKLGSLKIKQGEE [W18A;P19A] |
